The target of the test is Dr hemagglutinin (DraE) adhesin, Dr fimbriae (E. coli). As to the kind of experiment: SPR.

B1: N-domain of CEACAM6 (domain or fragment)
chain: KLTIESTPFNVAEGKEVLLLAHNLPQNRIGYSWYKGERVDGNSLIVGYVIGTQQATPGPAYSGRETIYPNASLLIQNVTQNDTGFYTLQVIKSDLVNEEATGQFHVYPEL
On to B1, for which the Kd was 30.1 µM.

By Kd is commonly meant a measure of binding affinity in units of concentration.

The record behind these values is PMC2629542 (The Journal of biological chemistry, 2006).
